Laboratory results from article PMC11286949.
Values belong to the substance of their own block, whether it stands above or below them.

Experiments:
[1] = target: Aquifex aeolicus Trbp111 (tRNA-binding protein, 111 amino acids) (Aquifex aeolicus); assay: crystal structure; unbound (apo) Trbp111, 2.3 Å, space group C222_(1); crystals grew from a mixture with tRNA^Ile, 0.2 M lithium sulfate, 0.1 M Tris-HCl pH 8.5, 25% PEG 3350
[2] = target: T1, Arc1p dNdM1 (Saccharomyces cerevisiae) (UniProt P46672); assay: ITC; details: FP: 25 mM Tris-HCl pH 7.5, 2 mM MgCl2, 50 mM NaCl (Trbp111) or 150 mM NaCl (Arc1p), room temperature, ITC: 25 mM Tris-HCl pH 7.4, 150 mM NaCl
T1 sequence (P46672 whole entry, looked up): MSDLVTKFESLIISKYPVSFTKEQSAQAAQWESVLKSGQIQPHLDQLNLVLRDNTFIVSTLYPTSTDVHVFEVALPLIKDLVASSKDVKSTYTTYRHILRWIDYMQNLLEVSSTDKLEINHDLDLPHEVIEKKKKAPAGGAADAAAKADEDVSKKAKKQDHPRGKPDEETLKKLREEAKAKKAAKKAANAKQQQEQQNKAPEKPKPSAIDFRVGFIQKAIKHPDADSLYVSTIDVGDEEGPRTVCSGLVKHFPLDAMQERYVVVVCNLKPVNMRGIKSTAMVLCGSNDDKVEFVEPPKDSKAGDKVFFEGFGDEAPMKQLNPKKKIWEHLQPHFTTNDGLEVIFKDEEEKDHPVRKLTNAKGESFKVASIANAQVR

[3] = target: T2, Arc1p dN del1-131 (Saccharomyces cerevisiae) (UniProt P46672); assay: ITC; details: FP: 25 mM Tris-HCl pH 7.5, 2 mM MgCl2, 50 mM NaCl (Trbp111) or 150 mM NaCl (Arc1p), room temperature, ITC: 25 mM Tris-HCl pH 7.4, 150 mM NaCl
T2 sequence: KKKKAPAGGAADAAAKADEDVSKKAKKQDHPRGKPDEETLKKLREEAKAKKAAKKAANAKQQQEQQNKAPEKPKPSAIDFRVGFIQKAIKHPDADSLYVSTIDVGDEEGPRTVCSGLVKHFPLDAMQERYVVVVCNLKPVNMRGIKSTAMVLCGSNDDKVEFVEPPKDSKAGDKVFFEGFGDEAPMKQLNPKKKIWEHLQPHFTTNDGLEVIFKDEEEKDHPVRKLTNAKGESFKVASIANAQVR

stoichiometry N [1]: 2
Substance: Aquifex aeolicus Trbp111 (tRNA-binding protein, 111 amino acids) (natural protein)

Substance: AGGCUUGUAGCUCAGGUGGUUAGAGCGCACCCCUGAUAAGGGUGAGGGCGGUGGUUCAAGUCCACUCAGGCCUACCA [tRNAIle WT]
Kd [2]: 2.55 µM

Substance: tRNAIle G18C/G19C
Kd [3]: 3.33 µM
